B1: LINE1-mini (parent)
chain: GGCAGAGCUCAACACAGCGUGGCAAAGUGGCUGUGGCUAGACUGCC

Variants of: B1
Assay: self-cleavage, relative activity (ratio to wild type); higher = more cleavage; in vitro, sequencing; the parent is a self-cleaving ribozyme

Compared with A12G C42U, G33A U34C is higher in self-cleavage: 0.07 for the first, 0.09 for the second.

Going from G2U C18A to C15A C46G, the self-cleavage rises from 0.03 to 0.05.

Compared with U34C C42A, G7C G17A is lower in self-cleavage: 0.09 for the first, 0.07 for the second.

First: C42U U43C
Second: A12C U43C
The self-cleavage of the first is higher: 0.11 for the first, 0.01 for the second.

First: G17A U28A
Second: G21A G36U
The self-cleavage of the first is higher: 0.26 for the first, 0.15 for the second.

Going from A14C A26U to G33A C42U, the self-cleavage rises from 0.09 to 0.14.

Going from A6G A25G to G1U G40U, the self-cleavage rises from 0.07 to 0.08.

Going from G2A G19A to A12G C37U, the self-cleavage falls from 1.72 to 0.04.

First: G30A C45U
Second: G27A C42G
The self-cleavage of the first is higher: 1.57 for the first, 0.05 for the second.

Compared with C13U A24G, G30U G36C is lower in self-cleavage: 0.13 for the first, 0.11 for the second.

U9G C10A and C15G U38G are the same in self-cleavage: 0.03 for the first, 0.03 for the second.

First: C37A U43A
Second: A6C U38G
The self-cleavage of the first is higher: 0.13 for the first, 0.02 for the second.

Compared with C13U C31U, C15U C18G is lower in self-cleavage: 0.12 for the first, 0.07 for the second.

First: A16U C18A
Second: G7C G22C
The self-cleavage of the first is lower: 0.05 for the first, 0.08 for the second.

First: C3G C46U
Second: G19A A39G
The self-cleavage of the first is higher: 0.17 for the first, 0.1 for the second.

First: U20C A25G
Second: A4G A16G
The self-cleavage of the first is higher: 0.53 for the first, 0.16 for the second.

G19A G36U and U20A U32C are the same in self-cleavage: 0.09 for the first, 0.09 for the second.

Compared with G19A G33U, U43G C46G is higher in self-cleavage: 0.15 for the first, 0.32 for the second.

First: G22C C46A
Second: A16G U32A
The self-cleavage of the first is higher: 0.61 for the first, 0.07 for the second.

A16G U43G and G7A A39C are the same in self-cleavage: 0.08 for the first, 0.08 for the second.

Compared with A14U U28G, C23A G40A is lower in self-cleavage: 0.3 for the first, 0.14 for the second.

Going from C31U U32A to C31U U32C, the self-cleavage falls from 0.09 to 0.08.

Compared with U20C C37A, A4U G17C is higher in self-cleavage: 0.04 for the first, 0.06 for the second.

Compared with U28G C42G, A4G G19C is higher in self-cleavage: 0.03 for the first, 0.23 for the second.

Going from C23G G27A to A6C G36A, the self-cleavage falls from 0.95 to 0.31.

Going from G44A C46G to C23A G27U, the self-cleavage rises from 0.12 to 0.72.

Compared with C3G C31G, U32A A39U is lower in self-cleavage: 0.07 for the first, 0.06 for the second.

First: G2A A41U
Second: C8A A12C
The self-cleavage of the first is higher: 0.66 for the first, 0.04 for the second.

Compared with C10A A39G, A24G U34G is higher in self-cleavage: 0.04 for the first, 0.14 for the second.

First: G2A U20A
Second: G21U U43A
The self-cleavage of the first is higher: 0.88 for the first, 0.08 for the second.

Compared with A4C U28A, A16U C23G is higher in self-cleavage: 0.07 for the first, 0.1 for the second.

Compared with A11C G17A, G1U U32G is higher in self-cleavage: 0.03 for the first, 0.05 for the second.

Going from G2U A26C to U9C G17A, the self-cleavage falls from 0.09 to 0.02.

Compared with A24G C31A, U9G U20A is lower in self-cleavage: 0.15 for the first, 0.07 for the second.

Compared with A12G A14C, A12G A14U is lower in self-cleavage: 0.04 for the first, 0.03 for the second.

Going from C10G A11G to C8U G19U, the self-cleavage rises from 0.03 to 0.24.

First: U9G G29A
Second: U9C A12G
The self-cleavage of the first is higher: 0.08 for the first, 0.04 for the second.

Compared with G1U G36C, A4U A6G is higher in self-cleavage: 0.04 for the first, 0.16 for the second.

Going from C3U A26U to A14U C31U, the self-cleavage falls from 0.67 to 0.04.

First: G5A G40U
Second: C13A G30U
The self-cleavage of the first is lower: 0.1 for the first, 0.11 for the second.

First: G19A U34G
Second: G22U U28A
The self-cleavage of the first is lower: 0.29 for the first, 0.58 for the second.

Compared with A24U G33A, A6G G30C is higher in self-cleavage: 0.05 for the first, 0.13 for the second.

First: G1C A25U
Second: G22U A41U
The self-cleavage of the first is lower: 0.08 for the first, 0.72 for the second.

Going from G17A C23U to C18U G29A, the self-cleavage rises from 0.22 to 1.77.

Going from C10G A39U to C10U U43G, the self-cleavage rises from 0.16 to 0.19.

Going from U20G G29A to A4C G22A, the self-cleavage falls from 1.02 to 0.09.

Going from A6U C42U to C18U C45U, the self-cleavage rises from 0.42 to 1.45.

First: C10A C18G
Second: C8A C18A
The self-cleavage of the first is lower: 0.04 for the first, 0.37 for the second.

Compared with G1A C23U, C8U G36C is lower in self-cleavage: 1.29 for the first, 0.27 for the second.

Going from G5U U34C to G5U G35A, the self-cleavage rises from 0.07 to 0.08.

First: G5A U32A
Second: C10A U38C
The self-cleavage of the first is lower: 0.06 for the first, 0.16 for the second.

Going from G17C G19C to G1U A11G, the self-cleavage falls from 1.39 to 0.02.

Compared with U34A G36U, A6C A39U is higher in self-cleavage: 0.04 for the first, 0.68 for the second.

First: C13U U20C
Second: G1U A39G
The self-cleavage of the first is higher: 0.09 for the first, 0.05 for the second.

First: C31A A39C
Second: G2U G30C
The self-cleavage of the first is lower: 0.05 for the first, 0.1 for the second.

First: C8U G27C
Second: G2U A24U
The self-cleavage of the first is lower: 0.11 for the first, 0.19 for the second.

Compared with G5C U9G, A41C G44U is higher in self-cleavage: 0.04 for the first, 0.11 for the second.

Compared with A24U C46U, C13U C45A is lower in self-cleavage: 1.09 for the first, 0.05 for the second.

Compared with C15G G17U, C13G A24C is higher in self-cleavage: 0.05 for the first, 0.07 for the second.

Going from A4C A16U to A25U U34C, the self-cleavage rises from 0.05 to 0.13.

First: C13U G36A
Second: A11U U43A
The self-cleavage of the first is higher: 0.63 for the first, 0.02 for the second.

Compared with G19U G21C, C15A C23A is lower in self-cleavage: 0.81 for the first, 0.18 for the second.

Going from C18U C31U to G21C U28A, the self-cleavage rises from 0.04 to 0.3.

First: G29U G44U
Second: U34C A39U
The self-cleavage of the first is higher: 0.31 for the first, 0.07 for the second.

First: U9A G21U
Second: C10A U28C
The self-cleavage of the first is higher: 0.15 for the first, 0.07 for the second.

Going from A12G G22C to G7A C15U, the self-cleavage rises from 0.04 to 0.24.

First: U9G G44C
Second: A12C G22U
The self-cleavage of the first is higher: 0.03 for the first, 0.02 for the second.

Going from G19A G40U to G30U U34A, the self-cleavage falls from 0.16 to 0.05.

First: G19A U43G
Second: A4U C8G
The self-cleavage of the first is lower: 0.06 for the first, 0.09 for the second.

First: G22A C42U
Second: G1C G27U
The self-cleavage of the first is higher: 0.7 for the first, 0.12 for the second.

Going from G1C C3G to C3U G7U, the self-cleavage rises from 0.1 to 0.11.

First: C18U G21A
Second: C13A U20C
The self-cleavage of the first is higher: 2.7 for the first, 0.04 for the second.

First: G7C G44C
Second: A6G A16U
The self-cleavage of the first is higher: 0.18 for the first, 0.06 for the second.

First: C23G G30A
Second: A24G A41G
The self-cleavage of the first is higher: 1.88 for the first, 0.6 for the second.

Going from C13G G19C to A41U G44U, the self-cleavage rises from 0.06 to 0.16.

Going from G1A U9A to G7U C23U, the self-cleavage falls from 0.34 to 0.06.

Going from G1A G35C to A6G C8A, the self-cleavage rises from 0.1 to 0.15.

C3U C31U and U32G C45A are the same in self-cleavage: 0.1 for the first, 0.1 for the second.

Going from A12G G17C to A11C G36U, the self-cleavage falls from 0.05 to 0.01.

Compared with G2A C31U, A26C C46A is higher in self-cleavage: 0.25 for the first, 0.83 for the second.

Going from G2C C13U to U38A C46G, the self-cleavage rises from 0.18 to 0.38.

Going from A16G G17U to U43C C46U, the self-cleavage falls from 0.32 to 0.1.

First: A6C A12C
Second: G17C C23U
The self-cleavage of the first is lower: 0.06 for the first, 1.61 for the second.

Work on G1U A25U yielded a self-cleavage of 0.45.

From the RNAGym collection of RNA variant scans (doi:10.7554/elife.90254)
